# Experimental data taken from paper PMC7253548.
# Target: OsHsfB4d (Oryza sativa (rice; cv. Zhonghua 11?)) (UniProt Q10KX8)
# Test: EMSA
# Details: room temperature 20 min, buffer
# Chain of OsHsfB4d (Oryza sativa (rice; cv. Zhonghua 11?)) (Q10KX8 whole entry): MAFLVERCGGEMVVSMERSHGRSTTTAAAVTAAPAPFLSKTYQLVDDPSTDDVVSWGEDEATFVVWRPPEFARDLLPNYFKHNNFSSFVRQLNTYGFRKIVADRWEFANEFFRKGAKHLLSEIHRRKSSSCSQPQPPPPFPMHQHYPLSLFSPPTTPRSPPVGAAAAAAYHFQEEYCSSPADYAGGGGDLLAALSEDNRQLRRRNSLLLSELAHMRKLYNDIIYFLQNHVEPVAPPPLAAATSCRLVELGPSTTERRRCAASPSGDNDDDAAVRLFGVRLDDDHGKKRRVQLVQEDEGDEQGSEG
sequence,measurement,value
CGTCGGAATAGCTGCGAATTTGGAGGTGGAACGATCGGACTTCTCTGAGTTCTTACTCTGATGTTTGCTTGGTTTGCTTTGCGTTTTCTTCGTGGTTCTGCCGGTGAAGGGGAGCGCGGTTTTATAGAGGGCAGCGAGAGGGCATCGTGGAGCTTGGAATAAGCTTCTAGAAACTTCCAGTTTGCCCCCGCATGGGCTAGAACCTAGTACGAGATAGCTTGGGCTAGAAGTTTACACCACCGGTAGCGGGGTGGGCTGTAGCCCATAGCGTCCAG (double strand),binding,binds
